These results are taken from paper PMC3576024.

Test in all cases: DTNB colorimetric detection of released CoA, Michaelis-Menten fit
What all share (assay type): biochemical, Aedes aegypti
Holding throughout (settings): apparent Km; 0.4 mM acetyl-CoA, 50 mM Tris-HCl, 1.0 mg/mL BSA, room temperature

Substrate in data set [1]: NCCc1ccc(O)cc1
Substrate in data set [2]: NC[C@H](O)c1ccc(O)c(O)c1
Substrate in data set [3]: NCCc1c[nH]c2ccccc12
Substrate in data set [4]: NCCc1c[nH]c2ccc(O)cc12
Substrate in data set [5]: NCCc1ccc(O)c(O)c1
Substrate in data set [6]: NC[C@H](O)c1ccc(O)cc1

B1: aaNAT2 (PaaNAT2) (Aedes aegypti) (protein)
chain: MLDSKLNNIRFETISSKYYDDVIEHLRQTFFADEPLNKAVNLTRPGQGHPLLEQHSLSTLKDNVSIMAISNDGDIAGVALNGILYGNTDIEKSREKLNEIQDESFKKIFKLLYEQNLKINLFKQFDVDKIFEIRILSVDSRFRGKGLAKKLIEKSEELALDRGFQVMKTDATGAFSQRVVSSLGFITKCEINYTDYLDENGEQIFVVDPPHEKLKIMCKVIN
As to B1, the Km in data set [1] is 170 ± 30 µM; in data set [2] it was 420 ± 60 µM; in data set [3], 170 ± 40 µM; in data set [4] it was 230 ± 50 µM; in data set [5] it was 130 ± 50 µM; in data set [6], 270 ± 40 µM. In addition, the turnover number (kcat) in data set [1] came to 3.17 ± 0.183 s⁻¹; in data set [2] it was 3.47 ± 0.192 s⁻¹; in data set [3], 3.05 ± 0.197 s⁻¹; in data set [4] it was 3.16 ± 0.198 s⁻¹; in data set [5] it was 2.56 ± 0.25 s⁻¹; in data set [6] it was 3.65 ± 0.175 s⁻¹. The catalytic efficiency (kcat/Km) in data set [1] was found to be 18600 M⁻¹ s⁻¹; in data set [2], 8270 M⁻¹ s⁻¹; in data set [3], 17900 M⁻¹ s⁻¹; in data set [4], 13800 M⁻¹ s⁻¹; in data set [5] it was 19700 M⁻¹ s⁻¹; in data set [6], 13500 M⁻¹ s⁻¹.

B2: aaNAT1 (PaaNAT1) (Aedes aegypti) (protein)
chain: MASKMSTVSSDAKGAIVKPSSTDDSTLPLDEVDTNISIELITEDDAEDVLKLLKKFFFKDEPLNTFVNLGECKELEKYSTKNLHEHCSFKAVNGRGEIVGVNINGLINRPKETDEPPAKLADGCEHPKFKKIMALMDYVDEHFNIFDLYPDVDRMLDVKIMSVDSRYRGLGIAGKLTDRTMQYVKDNNIKLVHVLCSSHFSARVMEKLDFEEVYKLDYSDYLVNGEQVFDPEKPHTAVRILTKRLA
For B2, the Km in data set [1] worked out at 170 ± 40 µM; in data set [2], 160 ± 40 µM; in data set [3] it was 160 ± 40 µM; in data set [4], 230 ± 60 µM; in data set [5], 190 ± 70 µM; in data set [6], 140 ± 80 µM. The catalytic constant (kcat) worked out at 6.77 ± 0.413 s⁻¹ in data set [1]; 7.76 ± 0.577 s⁻¹ in data set [2]; 7.34 ± 0.528 s⁻¹ in data set [3]; 7.54 ± 0.595 s⁻¹ in data set [4]; 7.3 ± 0.742 s⁻¹ in data set [5]; 7.26 ± 1.12 s⁻¹ in data set [6]. The kcat/Km worked out at 39800 M⁻¹ s⁻¹ in data set [1]; 48500 M⁻¹ s⁻¹ in data set [2]; 45900 M⁻¹ s⁻¹ in data set [3]; 32800 M⁻¹ s⁻¹ in data set [4]; 38400 M⁻¹ s⁻¹ in data set [5]; 51900 M⁻¹ s⁻¹ in data set [6].

What is called Km is the concentration of substrate that gives half-maximal velocity. As usually defined, the kcat is the number of substrate molecules converted per active site and unit of time at saturation. By kcat/Km is commonly meant the turnover number divided by the Michaelis constant.
